In patent CN113999301A (JIANGSU XINTRUM PHARMACEUTICALS CO LTD, dated 2022):

Target: 新冠假病毒Delta突变株的S蛋白 (B.1.617.2(Delta)) (SARS-CoV-2, UniProt P0DTC2 14-1273)
Assay: cell-based or functional assay

B1: 抗SARS-CoV-2(COVID-19)S蛋白RBD单克隆抗体B15-5-B3 (antibody, V domains shown)
VH: EVKFEESGGGLVQPGGSMKLSCAASGFTFSDAWMDWVRQSPEKGLEWVAEIRNKANNHATYYAESVKGRFTISRDDSKSSVYLQMNSLRAEDTGIYYCTPYDYAYPWFWGQGTLVTVSA
VL: EIVLTQSPTTMAASPGEKITITCSASSSISSHYLHWYQQKPGFSPKLLIYRSYSLASGFPGRFSGSGSGTSFSLSIGTMEAEDVATYYCQQGSSRITPFGGGTKLEIK
How did the “假病毒中和效应 EC50 (luciferase, HEK293-ACE2 cells)” value turn out when B1 was run?
The value was 0.27 µg/mL.
